B1: Hairpin Ribozyme (parent)
chain: GUCCUCUUUCACGUGCGCGUGAAAGAGAGAAGUGAACCAGAGAAACACACGUUGUGGUAUAUUACCUGGUA

Variants of: B1
Test: self-cleavage, relative activity (ratio to wild type); higher = more cleavage; co-transcriptional
A30G C65G showed a self-cleavage of 0.204. Work on G29C U60A yielded a self-cleavage of 0.139. G29C U60C gave a self-cleavage of 0.164. For G29A U58G, the self-cleavage was 0.13. Variant G29A U58C has a self-cleavage of 0.202. Variant A30G A61C has a self-cleavage of 0.109. For G29U G56C, the self-cleavage was 0.162. In the case of A30U U67C, the self-cleavage is reported as 0.0825. With A30U U67A the self-cleavage was 0.0771. A30U U67G gave a self-cleavage of 0.176. Variant A30U G56U has a self-cleavage of 0.149. Work on A30U G56A yielded a self-cleavage of 0.127. In the case of G29C G69C, the self-cleavage is reported as 0.0776. Work on A31C A49G yielded a self-cleavage of 0.0512. Work on A28U C46A yielded a self-cleavage of 0.0952. With A30C G56U the self-cleavage was 0.157. Variant A28G G51U has a self-cleavage of 1.14. Work on A28G U33C yielded a self-cleavage of 0.155. Variant G29C C65A has a self-cleavage of 0.204. With G29C C65G the self-cleavage was 0.209. With G29C U58C the self-cleavage was 0.159. In the case of A30G G40A, the self-cleavage is reported as 0.0732. Variant A28U A47C has a self-cleavage of 0.172. For A31C G32C, the self-cleavage was 0.228. Variant G29C A31U has a self-cleavage of 0.0962. In the case of G29C A39U, the self-cleavage is reported as 0.0768. For A28U C66U, the self-cleavage was 0.207. With A28U C66G the self-cleavage was 0.302. With A28U A39C the self-cleavage was 0.337. G29C U33A showed a self-cleavage of 0.0541. For A30U U60A, the self-cleavage was 0.346. G29A C50G gave a self-cleavage of 0.187. Work on A30U A71C yielded a self-cleavage of 0.299. In the case of A30U A71U, the self-cleavage is reported as 0.101. With A31C A39C the self-cleavage was 0.173. G29C A43G showed a self-cleavage of 0.261. Variant A30C G54C has a self-cleavage of 0.173. In the case of A30C G54A, the self-cleavage is reported as 0.107. A30U A36U showed a self-cleavage of 0.0371. For A30C U33C, the self-cleavage was 0.1. Variant A30C U33G has a self-cleavage of 0.0878. Variant A30G U53G has a self-cleavage of 0.157. Work on A28U A31U yielded a self-cleavage of 0.138. A30U A44U showed a self-cleavage of 0.16. Variant G29C G56A has a self-cleavage of 0.0331. With G29C G56C the self-cleavage was 0.0545. For G29U C46A, the self-cleavage was 0.089. Work on G29U C46U yielded a self-cleavage of 0.124. G29U A44G showed a self-cleavage of 0.142. G29U U63G showed a self-cleavage of 0.103. For A30G G51C, the self-cleavage was 0.199. With A31C G40C the self-cleavage was 0.0931. A30U A43G showed a self-cleavage of 0.108. G29U A45G showed a self-cleavage of 0.136. With A30G A45G the self-cleavage was 0.17. In the case of A28G G54U, the self-cleavage is reported as 0.541. Variant A30U G51A has a self-cleavage of 0.104. For A28U U53A, the self-cleavage was 0.845. Work on G29C U55G yielded a self-cleavage of 0.0655. A28U U55C gave a self-cleavage of 0.161. Work on A28U U55G yielded a self-cleavage of 0.159. Variant G29U A39G has a self-cleavage of 0.0986. G29U A39U showed a self-cleavage of 0.0632. G29U G68U showed a self-cleavage of 0.176. Variant A30U A64U has a self-cleavage of 0.13. A30C A43U gave a self-cleavage of 0.128. In the case of G29U G34C, the self-cleavage is reported as 0.0691. G29U A61C gave a self-cleavage of 0.14. G29C U53G gave a self-cleavage of 0.0421. G29C U53A gave a self-cleavage of 0.116. G29C U62G gave a self-cleavage of 0.18. In the case of G29C U62A, the self-cleavage is reported as 0.13. A31C U33G showed a self-cleavage of 0.0823. Variant A30U U58A has a self-cleavage of 0.115. Variant G29C G54C has a self-cleavage of 0.0908. In the case of G29C G54A, the self-cleavage is reported as 0.1. In the case of G29A G56A, the self-cleavage is reported as 0.157. A30C C66U gave a self-cleavage of 0.169. A30G C46U showed a self-cleavage of 0.236. For A28G G40A, the self-cleavage was 0.426. G29C A45G showed a self-cleavage of 0.106. For G29C A45U, the self-cleavage was 0.122. In the case of A28U U70A, the self-cleavage is reported as 0.422. G29A G57C gave a self-cleavage of 0.109. With A30U A39C the self-cleavage was 0.111. Variant A30U A39G has a self-cleavage of 0.0918. For A30U A39U, the self-cleavage was 0.0553. With A31C C66U the self-cleavage was 0.225. For A30C A49U, the self-cleavage was 0.154. In the case of A30C A49G, the self-cleavage is reported as 0.123. A30C A49C gave a self-cleavage of 0.0983. Variant A31C A47G has a self-cleavage of 0.108. G29A U62G showed a self-cleavage of 0.21. Variant G29A A49C has a self-cleavage of 0.179. Work on A28U yielded a self-cleavage of 0.656. In the case of A31C A59U, the self-cleavage is reported as 0.108. With A28G U55C the self-cleavage was 0.53. In the case of A28G U55A, the self-cleavage is reported as 0.208. Work on A30C C37A yielded a self-cleavage of 0.0529. Variant A30U A61C has a self-cleavage of 0.069. Variant A30U A61U has a self-cleavage of 0.0778. For A28U U63C, the self-cleavage was 0.113. In the case of G29C U63G, the self-cleavage is reported as 0.0807. With G29A G34C the self-cleavage was 0.248. Variant G29U A49C has a self-cleavage of 0.14. Variant G29U A49G has a self-cleavage of 0.173. Variant A28U A41U has a self-cleavage of 1.31. In the case of A28U A41G, the self-cleavage is reported as 0.35. Work on A30U A47C yielded a self-cleavage of 0.0639. Variant G29C U52G has a self-cleavage of 0.0183. In the case of G29C U52A, the self-cleavage is reported as 0.129. Variant G29A U63C has a self-cleavage of 0.0755. With A30U A59U the self-cleavage was 0.0496. A30U A59G gave a self-cleavage of 0.187. Variant G29U G32U has a self-cleavage of 0.164. In the case of G29U G32A, the self-cleavage is reported as 0.169. With A30U G68A the self-cleavage was 0.0299. With A30U G68U the self-cleavage was 0.207. Work on A30U G68C yielded a self-cleavage of 0.118. In the case of A31C C46A, the self-cleavage is reported as 0.0889. With A31C C46G the self-cleavage was 0.0917. For A31C C46U, the self-cleavage was 0.187. G29C A47G gave a self-cleavage of 0.0858. For G29C A47C, the self-cleavage was 0.15. G29A G68A gave a self-cleavage of 0.125. In the case of G29A G68C, the self-cleavage is reported as 0.143. G29A G68U showed a self-cleavage of 0.306. With A30C U53C the self-cleavage was 0.203. Variant A30C U53G has a self-cleavage of 0.284. Variant A31C G69A has a self-cleavage of 0.0915. Variant G29U U52G has a self-cleavage of 0.0467. With A30U G32C the self-cleavage was 0.132. In the case of A31C G57C, the self-cleavage is reported as 0.189. In the case of A31C G57A, the self-cleavage is reported as 0.107. Work on A31C G57U yielded a self-cleavage of 0.0476. With A30U U70C the self-cleavage was 0.123. A30U U70A gave a self-cleavage of 0.0595. A28U A49U gave a self-cleavage of 0.111. For A31C A71C, the self-cleavage was 0.202. With A31C A71G the self-cleavage was 0.212. Variant A30G A31G has a self-cleavage of 0.157. A28G U60A showed a self-cleavage of 0.661. Variant G29A G40U has a self-cleavage of 0.0938. For A28U G32U, the self-cleavage was 0.258. In the case of A28U A35U, the self-cleavage is reported as 0.505. With A30C A31U the self-cleavage was 0.129. Variant G29C A36G has a self-cleavage of 0.18. A30U U53C showed a self-cleavage of 0.041. G29U U60G showed a self-cleavage of 0.17. With G29C A64C the self-cleavage was 0.133. With G29C A64G the self-cleavage was 0.124. With A30C G57U the self-cleavage was 0.266. A30C U63C gave a self-cleavage of 0.0293. Work on G29A A61C yielded a self-cleavage of 0.163. Work on G29A A61G yielded a self-cleavage of 0.125. Variant A30G U60C has a self-cleavage of 0.252. For A30C G34U, the self-cleavage was 0.815. Work on A30C G32A yielded a self-cleavage of 0.145. G29C C50U gave a self-cleavage of 0.144. For G29C C50G, the self-cleavage was 0.0763. G29C A61G gave a self-cleavage of 0.135. Work on G29C A61U yielded a self-cleavage of 0.0566. In the case of A31C G54A, the self-cleavage is reported as 0.152. A30U C48G showed a self-cleavage of 0.118. With A30U C48A the self-cleavage was 0.209. With A28G G68C the self-cleavage was 0.115. Work on A28U A36U yielded a self-cleavage of 0.276.
